Data taken from publication PMC4004541, “PEG-Like Nanoprobes: Multimodal, Pharmacokinetically and Optically Tunable Nanomaterials” (PLoS ONE, 2014).

Legend:
[1] = Circulating form of PN's: FPLC of sera of injected mice; type: in vivo; details: 20 nmoles IV tail vein, nude mice, FPLC at 783 nm
Protocol: To see if the variable PN size could be translated into tunable pharmacokinetics, it was essential to first establish that PN’s circulated at PEG-determined, pre-injection dimensions. Mice were injected with PN’s and FPLC chromatograms of serum samples, taken at various times post injection ( Figures 2D, 2E and 2F ), compared with pre-injection PN samples. By using PN’s absorbing at 783 nm, chromatograms from the sera of injected mice reflect this PN, since there are no compounds in serum that absorb at this wavelength. […] Similarly, peaks for PN(783)6.1 ( Figure 2E ) and PN(783)4.3 ( Figure 2F ) where identical for pre-injection samples and for nanoprobes in the sera of injected mice. Thus, molecular weight of the PEG chosen determines PN dimensions in vitro and those dimensions are maintained after injection.
(§1) At the indicated time, 50 µl of blood was collected with microhematocrit capillary tube (Fisher Scientific) from the tail, and transferred to Eppendorf microcentrifuge tube with anticoagulant (EDTA) coating (Fisher Scientific). Tubes were centrifuged (5000 rpm for 5 min), and the supernatant was injected to the FPLC, a ÄKTA Purifier 10 with SuperdexTM 200 10/300GL column.
as §1, with “μl” for “µl”

[2] = Elimination by whole animal surface fluorescence imaging; type: in vivo; details: mice, after injection, n = 6
Protocol: Surface fluorescence images for representative animals are shown and total surface fluorescence is quantified in bar graphs to the right of the image. […] The pharmacokinetics and biodistributions of these PN’s is further analyzed below.
Figure 3 Role PEG in determining elimination by surface fluorescence imaging. A) Animals were injected with unPEGylated peptide and imaged at the times indicated. Bar graph gives whole animal surface fluorescence determined as means and standard deviations, n = 6.
(§2) A Kodak FX multispectral imaging system was used (Carestream Molecular Imaging, Rochester, NY). Excitation at multiple wavelengths (620, 650, 690, 710, 720, 730, 750 and 760 nm) with the emission at 830 nm was setup for IR-783 spectrum; Excitation at multiple wavelengths (420, 440, 460, 480, 510, 520, 530, and 540 nm) with the emission at 600 nm was setup for Cy3 spectrum; Excitation at multiple wavelengths (450, 470, 510, 520, 530, 540, 550, 570, and 590 nm) with the emission at 700 nm was setup for mCherry; with manufacturer’s software to separate (unmix) the IR-783 spectrum, Cy3 spectrum, or mCherry spectrum from skin autofluorescence and chlorophyll fluorescence from food. X-ray images were taken after fluorescence images. […]
as §2, with “Whole animal surface fluorescence imaging: All animal experiments in this work were approved by the Institutional Review Committee of the Massachusetts General Hospital. […]” for “A Kodak FX multispectral imaging system was used (Carestream Molecular Imaging, Rochester, NY).”

[3] = mouse, in vivo; for Alpha half-life / Beta half-life / k elim half-life / k perm half-life / k vas return half-life: iv
Protocol: To assess the relationship between PN dimensions and transcapillary passage, the classic two compartment pharmacokinetic model ( Figure 4A ) [17] was applied to PN(783)10.0 ( Figure 4B ) and PN(783)4.3 ( Figures 4C ).
Groups of 5 nude mice (female; 25–30 g; 6–8 weeks old; nu/nu) were injected (tail vein, IV) with 10 nmole of PN(783)4.3 or PN(783)10.0. 50 µl of blood was collected from tail tip at the indicated times. The blood was processed as above, and diluted (25 µl plasma, 700 µl of PBS). Fluorescence was measured with Cary Eclipse Fluorescence Spectrophotometer, excitation at 765 nm and emission from 790 to 880 nm. The fluorescence intensity at 806 nm was plotted over time, and the data was fit to a biexponential, two phase decay curve. The fast and slow distribution half-life was given by the two phase decay fit with Graphpad Prism software.
From the two phase decay fit, a biexponential equation for blood concentration as a function of time, [drawing 8] , was obtained. By the relation of macro constants and micro constants: [drawing 9] , [drawing 10] , [drawing 11] [drawing 12] , micro constants k's can be obtained, and the half-life was calculated by [drawing 13] , as described in [17]. The curve for interstitium concentration vs. time was fit with MATLAB based on the curve of blood concentration vs. time.
PN pharmacokinetics: Groups of 5 nude mice (female; 25-30g; 6-8 weeks old; nu/nu) were injected (tail vein, IV) with 10 nmole of PN(783)4.3 or PN(783)10.0. 50 μl of blood was collected from tail tip at the indicated times. The blood was processed as above, and diluted (25 μl plasma, 700 μl of PBS). Fluorescence was measured with Cary Eclipse Fluorescence Spectrophotometer, excitation at 765 nm and emission from 790 to 880 nm. The fluorescence intensity at 806 nm was plotted over time, and the data was fit with two-phase decay curve. The fast and slow distribution half-life was given by the two-phase decay fit with Graphpad Prism software.
Two compartment model: From the two-phase decay fit, a biexponential equation for blood concentration as a function of time, [picture] , was obtained. By the relation of macro constants and micro constants, [picture] , [picture] , [picture] , micro constants k's can be obtained, and the half-life was calculated by [picture] , as described in ^5. The curve for interstitium concentration vs. time was fit with MATLAB based on the curve of blood concentration vs. time.
Serum fluorescence data from Figure 3B and Figure 3C was analyzed using the two-compartment model as described ^5. Data were first fit to biexponential equation, yielding values of Alpha, Beta (apparent decay constants) and values of A and B as shown in equations 1 and 2 below.

mCherry/HT29 cells = test: Confocal microscopy of mCherry/HT29 tumor sections; type: in vivo, nude mice; details: tumor collected 48 h post IV injection
Protocol: With skin removed, an overlay of tumor mCherry (green) and PN(545)10.0 (purple) gave a white superimposition. To determine the cells responsible for the accumulation of PN(783)10.0 seen with surface fluorescence ( Figure 5C ), we employed confocal microscopy of mCherry/HT29 tumor sections ( Figure 5D ).
The mCherry-HT-29 tumor sample was collected at 48 h post IV injection with PN(497)10.0, and then cryosectioned with thickness of 5 µm. The tumor section was fixed with 4% PFA, mounted with 90% glycerol/10% PBS (at pH 8.5 for best fluorescein fluorescence), and stained with DAPI. Confocal imaging was performed on a Zeiss LSM510 laser scanning confocal microscope (Zeiss Axiophot, Carl Zeiss, Jena, Germany). A 405 nm diode Laser, 488 nm argon laser, and 561 nm diode laser were used for the excitation of DAPI, fluorescein, and mCherry, respectively. A primary dichroic HFT 405/488/561 was used in combination with an LP420 emission filter for DAPI, BP505-530 for fluorescein, and LP575 for mCherry. Images were analyzed with ImageJ64.
Confocal imaging: The mCherry-HT-29 tumor sample was collected at 48 h post IV injection with PN(497)10.0, and then cryosectioned with thickness of 5 µm. The tumor section was fixed with 4% PFA, mounted with 90% glycerol/10% PBS (at pH 8.5 for best fluorescein fluorescence), and stained with DAPI. […] Images were analyzed with ImageJ64.

HT-29 tumor = test: SPECT/CT and surface fluorescence imaging of the EPR effect of the HT-29 tumor; type: in vivo, nude mice; details: 48 h post-injection, mice bearing HT-29 tumors
Protocol: A) SPECT/CT images of two mice bearing two HT-29 tumors as a function of time after injection. […] B) Surface fluorescence imaging of two additional mice bearing the same tumor.
Female nude mice (25–30 g; 6–8 weeks old; nu/nu) were anesthetized with 2% isoflurane/O2. HT-29 or mCherry-HT-29 cells were detached, pelleted and 200 µl of cell suspension containing 10^6 cells in Matrigel (BD Bioscience) was injected subcutaneously into right and left shoulders. Tumors were allowed to grow 5–7 days before experiments.
The imaging was performed by Triumph II multimodality imaging system (Gamma Medica Ideas, LLC) comprising XSPECT with four CZT (Cadmium Zink Telluride) detectors and X-O CT with CMOS detector. SPECT data of the ^111In-labeled compound was acquired for 60 min using 5-pinhole collimators and processed with 3D-OSEM algorithm using 4 subsets and 5 iterations. 3-dimensional CT data was processed with modified Feldkamp software. […] Animals were under isoflurane anesthesia (1.5%) with O2 flow (1.5 l/min) and kept warm during the imaging with a heated animal bed.

Substance	Circulating size: FPLC peaks of serum samples after injection versus pre-injection sample [1]	Elimination seen by whole animal surface fluorescence [2]	k perm expressed as a half-life [3]	Alpha half-life [3]	Beta half-life [3]	k elim half-life [3]	k perm half-life [3]	k vas return half-life [3]	Cellular localisation in tumor sections (mCherry/HT29 cells)	Distribution by SPECT and surface fluorescence (HT-29 tumor)
(DOTA)Lys(PEG 5 kDa)-Cys(IR-783) [PN(783)4.3]	identical	bladder accumulation (arrow) at only 20 minutes post injection	0.395 h	0.13 h	1.64 h	1.01 h	0.40 h	0.20 h	–	–
(DOTA)Lys(PEG 30 kDa)-Cys(Fl) [PN(497)10.0, PEG-like Nanoprobe: 30 kDa PEG, fluorescein, DOTA peptide]	–	–	–	–	–	–	–	–	seen in mCherry/HT29 cells	–
(DOTA)Lys(PEG 30 kDa)-Cys(IR-783) [PN(783)10.0]	circulates at its pre-injection size	excellent elimination at 48 h	–	0.51 h	7.0 h	4.2 h	1.02 h	1.23 h	–	seen only in the tumor
